Results published in patent US6893638.

B1: monkey monoclonal anti-B7.1 antibody 7C10 (antibody, V domains shown)
VH: QVKLQQWGEGLLQPSETLSRTCVVSGGSISGYYYWTWIRQTPGRGLEWIGHIYGNGATTNYNPSLKSRVTISKDTSKNQFFLNLNSVTDADTAVYYCARGPRPDCTTICYGGWVDVWGPGDLVTVSS
VL: AYELTQPPSVSVSPGQTARITCGGDNSRNEYVHWYQQKPARAPILVIYDDSDRPSGIPERFSGSKSGNTATLTINGVEAGDEADYYCQVWDRASDHPVFGGGTRVTVL
notes: Tested as the original cynomolgus monkey Ig from a heterohybridoma; A leader may be included in the entries; also called 7C10 monkey Ig
B2: monkey monoclonal anti-B7.1 antibody 16C10 (antibody, V domains shown)
VH: QVQLQESGPGLVKPSETLSLTCAVSGGSISGGYGWGWIRQPPGKGLEWIGSFYSSSGNTYYNPSLKSQVTISTDTSKNQFSLKLNSMTAADTAVYYCVRDRLFSVVGMVYNNWFDVWGPGVLVTVSS
VL: ESVLTQPPSVSGAPGQKVTISCTGSTSNIGGYDLHWYQQLPGTAPKLLIYDINKRPSGISDRFSGSKSGTAASLAITGLQTEDEADYYCQSYDSSLNAQVFGGGTRLTVL
notes: Tested as the original cynomolgus monkey Ig from a heterohybridoma
B3: monkey monoclonal anti-B7.1 antibody 7B6 (antibody, V domains shown)
VH: EVQLVESGGGLVQPGGSLRVSCAVSGFTFSDHYMYWFRQAPGKGPEWVGFIRNKPNGGTTEYAASVKDRFTISRDDSKSIAYLQMSSLKIEDTAVYYCTTSYISHCRGGVCYGGYFEFWGQGALVTVSS
VL: EVVMTQSPLSLPITPGEPASISCRSSQSLKHSNGDTFLSWYQQKPGQPPRLLIYKVSNRDSGVPDRFSGSGAGTDFTLKISAVEAEDVGVYFCGQGTRTPPTFGGGTKVEIK
notes: as for B2

What follows are binders tested against T1, membrane associated human B7.1 on cells (human, UniProt P33681 35-288) (assay: cell-based or functional assay).
T1 sequence (looked up): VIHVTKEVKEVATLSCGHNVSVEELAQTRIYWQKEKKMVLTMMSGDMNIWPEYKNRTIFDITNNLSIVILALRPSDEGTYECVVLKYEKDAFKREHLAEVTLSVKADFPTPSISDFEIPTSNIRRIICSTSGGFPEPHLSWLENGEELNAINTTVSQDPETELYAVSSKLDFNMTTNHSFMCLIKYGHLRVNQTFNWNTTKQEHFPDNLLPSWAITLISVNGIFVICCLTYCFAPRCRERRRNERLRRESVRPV
With B1 the “inhibit IL-2 production in mixed lymphocyte reaction” value (“inhibit IL-2 production” for short) was 5 µg/mL. B2 was tested, and the “inhibit IL-2 production” value was 0.1 µg/mL. B3 was tested, and the “inhibit IL-2 production” value was 5 µg/mL.

The binders below were run against T2, B7.1/Ig fusion protein (human, UniProt P33681 35-242, 125I radiolabel where used as tracer) (assay: Scatchard analysis, binding to B7-Ig coated plates).
T2 construct: Secreted from CHO cells; also called B7-Ig; not shown: human immunoglobulin CH2 and CH3 domains of the NEOSPLA cassette vector; isotype
T2 sequence (looked up): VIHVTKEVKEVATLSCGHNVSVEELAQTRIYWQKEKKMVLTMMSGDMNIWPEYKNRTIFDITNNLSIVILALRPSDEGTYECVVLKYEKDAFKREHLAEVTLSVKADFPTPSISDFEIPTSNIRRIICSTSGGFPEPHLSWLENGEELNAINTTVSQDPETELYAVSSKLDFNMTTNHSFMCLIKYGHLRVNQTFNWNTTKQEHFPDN
In the case of B1, the Kd is reported as ~6.2 nM. With B2 the Kd was ~8.1 nM. In the case of B3, the Kd is reported as ~10.7 nM.

Molecular target: T2, B7.1/Ig fusion protein
Assay: Scatchard analysis, binding to B7-Ig coated plates
Remark: another data set of the same source
B1 gave a Kd of ~6.2 nM. Binder B2 has a Kd of ~8.1 nM. Binder B3 has a Kd of ~10.7 nM.
